Measurements: patent US20160250307A1 (IMMATICS BIOTECHNOLOGIES, published 2016)

Molecular target: HLA-A*02 (human)
Assay: UV-ligand exchange, anti-b2m ELISA; grade: exchange yield >=50%

peptide exchange yield	Binder
50 to 75%	SQADVIPAV
50 to 75%	GLAPGGLAVV
50 to 75%	SICNGVPMV
50 to 75%	RMSDVVKGV
50 to 75%	RLPPDTLLQQV
50 to 75%	RLFPDGIVTV
50 to 75%	TLYALSHAV
50 to 75%	RLLDEQFAV
50 to 75%	HLAKVTAEV
50 to 75%	LLADIGGDPFAA
50 to 75%	RLFEENDVNL
50 to 75%	YLITGNLEKL
50 to 75%	SLAVLVPIV
50 to 75%	TLLDSPIKV
50 to 75%	NVFDGLVRV
50 to 75%	ALLNQHYQV
50 to 75%	RLAAFYSQV
50 to 75%	RILPKVLEV
50 to 75%	LLIDDEYKV
50 to 75%	VVLDDKDYFL
50 to 75%	VLSQVYSKV
50 to 75%	KLYDLELIV
50 to 75%	SLHNGVIQL
50 to 75%	KLTDHLKYV
50 to 75%	SVWFGPKEV
50 to 75%	SLLSPEHLQYL
50 to 75%	ALLEMDARL

peptide exchange yield	Binder
50 to 75%	YLDDEKNWGL
50 to 75%	SMGDHLWVA
50 to 75%	ALHEEVVGV
50 to 75%	SLWEGGVRGV
50 to 75%	TVMDIDTSGTFNV
50 to 75%	NLASFIEQVAV
50 to 75%	LLHEENFSV
50 to 75%	RMLIKLLEV
50 to 75%	YLWDLDHGFAGV
50 to 75%	ALLGKIEKV
50 to 75%	YLDKNLTVSV
50 to 75%	RLLDVLAPLV
50 to 75%	KLDNNLDSV
50 to 75%	SILDIVTKV
50 to 75%	SLFEWFHPL
50 to 75%	QLTPVLVSV
50 to 75%	YAFPKSITV
50 to 75%	QLLPNLRAV
50 to 75%	RLTESVLYL
50 to 75%	RLPDIPLRQV
50 to 75%	ALSSKPAEV
50 to 75%	SLAESSFDV
50 to 75%	TLLKKISEA
50 to 75%	TLAAIIHGA
50 to 75%	KLSEAVTSV
50 to 75%	SLIPAVLTV
50 to 75%	SLWSVARGV
